Experimental data taken from article PMC4702141 (Scientific Reports, 2016).

T1: human BMP6 (human, UniProt P22004 375-513)
T1 construct: Bone morphogenetic protein 6, human, recombinant; source: bought: R&D Systems
T1 sequence (looked up): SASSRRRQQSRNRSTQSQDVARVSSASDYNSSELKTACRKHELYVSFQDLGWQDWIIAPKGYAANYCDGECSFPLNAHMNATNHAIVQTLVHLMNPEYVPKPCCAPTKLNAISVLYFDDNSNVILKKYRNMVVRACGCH

T2: mouse GDF-7 (mouse, UniProt P43029 316-461)
T2 construct: Growth differentiation factor 7, mouse, recombinant; source: bought: R&D Systems
T2 sequence (looked up): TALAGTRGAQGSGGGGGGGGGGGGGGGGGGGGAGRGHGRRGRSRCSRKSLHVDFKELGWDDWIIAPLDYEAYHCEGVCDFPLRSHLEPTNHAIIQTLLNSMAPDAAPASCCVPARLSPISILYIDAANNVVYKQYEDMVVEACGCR

T3: human BMP4 (human, UniProt P12644 293-408)
T3 construct: Bone morphogenetic protein 4, human, recombinant; source: bought: R&D Systems
T3 sequence (looked up): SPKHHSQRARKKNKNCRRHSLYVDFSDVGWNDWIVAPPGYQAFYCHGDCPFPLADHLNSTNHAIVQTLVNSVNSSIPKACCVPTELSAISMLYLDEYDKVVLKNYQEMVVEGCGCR

T4: human BMP7 (human, UniProt P18075 293-431)
T4 construct: Bone morphogenetic protein 7, human, recombinant; source: bought: R&D Systems
T4 sequence (looked up): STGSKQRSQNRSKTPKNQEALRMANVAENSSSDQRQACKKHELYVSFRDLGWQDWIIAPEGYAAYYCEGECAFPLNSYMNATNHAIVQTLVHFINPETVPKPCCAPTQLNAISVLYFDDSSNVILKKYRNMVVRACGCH

T5: BMPRIA-Fc, P36895
T5 chain: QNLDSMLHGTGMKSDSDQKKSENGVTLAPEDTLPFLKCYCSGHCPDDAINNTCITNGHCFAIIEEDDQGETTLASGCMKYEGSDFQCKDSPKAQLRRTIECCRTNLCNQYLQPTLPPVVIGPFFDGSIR

B1: mouse GDF-6 (ligand, UniProt P43028 335-454, looked up)
chain: TAFASRHGKRHGKKSRLRCSRKPLHVNFKELGWDDWIIAPLEYEAYHCEGVCDFPLRSHLEPTNHAIIQTLMNSMDPGSTPPSCCVPTKLTPISILYIDAGNNVVYKQYEDMVVESCGCR
notes: Growth differentiation factor 6, mouse, recombinant; source: bought: R&D Systems
B2: mouse GDF-5 (ligand, UniProt P43027 376-495, looked up)
chain: APLANRQGKRPSKNLKARCSRKALHVNFKDMGWDDWIIAPLEYEAFHCEGLCEFPLRSHLEPTNHAVIQTLMNSMDPESTPPTCCVPTRLSPISILFIDSANNVVYKQYEDMVVESCGCR
notes: Growth differentiation factor 5, mouse, recombinant; source: bought: R&D Systems
B3: BMPRIA-Fc (Fc fusion)
chain: T5 chain
modifications: Extracellular domain; C-terminal human IgG Fc (left out) makes a disulfide-linked dimer. The protein was bought from R&D Systems with species and limits not given; human is taken as the likeliest …
B4: human BMP10 (ligand, UniProt O95393 317-424, looked up)
chain: NAKGNYCKRTPLYIDFKEIGWDSWIIAPPGYEAYECRGVCNYPLAEHLTPTKHAIIQALVHLKNSQKASKACCVPTKLEPISILYLDKGVVTYKFKYEGMAVSECGCR
notes: Bone morphogenetic protein 10, human, recombinant; source: bought: R&D Systems
B5: recombinant BMPRIB-Fc (Fc fusion, mouse, UniProt P36898 14-126, looked up)
chain: KKEDGESTAPTPRPKILRCKCHHHCPEDSVNNICSTDGYCFTMIEEDDSGMPVVTSGCLGLEGSDFQCRDTPIPHQRRSIECCTERNECNKDLHPTLPPLKDRDFVDGPIHHK
notes: BMPRIB (ALK6), mouse, extracellular domain; cDNA fragment NM_007560.3, 4-378 bp, from FANTOM cDNA clones (RIKEN); also called ALK6; source: 293F cells, transfected, purified from culture supernatant (Protein A columns)
B6: human BMP7, P18075 293-431 (ligand)
chain: T4 sequence (looked up)
modifications: here or on the partner: Extracellular domain; C-terminal human IgG Fc (left out) makes a disulfide-linked dimer. The protein was bought from R&D Systems with species and limits not given; human is taken as the likeliest pr

How the values were obtained:
Assay in all cases: SPR; BMPRIA-Fc or BMPRIB-Fc captured with an anti-human Fc IgG capture kit; ligands injected at 25 °C, 30 μL/min; HBS-EP (+) running buffer; single-cycle kinetics, 1:1 binding model, Biacore T100; average of 2 or 3 independent analyses
[1] = target: B3; settings: both partners purified
[2] = target: T1, human BMP6; settings: both partners purified
[3] = target: T2, mouse GDF-7; settings: both partners purified
[4] = target: B5; settings: both partners purified
[5] = target: T3, human BMP4; settings: both partners purified
[6] = target: T6, human BMP2 (human, UniProt P12643 283-396); settings: both partners purified
T6 construct: Bone morphogenetic protein 2, human, recombinant; source: bought: R&D Systems

[7] = target: B2; settings: both partners purified
[8] = target: T4, human BMP7; settings: both partners purified
[9] = target: B1; settings: both partners purified
[10] = target: T5, BMPRIA-Fc, P36895; settings: remark: other sources report otherwise

T6 sequence (P12643 283-396): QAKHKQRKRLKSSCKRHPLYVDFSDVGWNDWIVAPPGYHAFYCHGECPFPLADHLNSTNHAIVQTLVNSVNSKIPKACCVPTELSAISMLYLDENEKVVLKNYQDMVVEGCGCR

Binder: B1
Kd [1]: 0.48 nM

Binder: B2
Kd [1]: 1.63 nM

Binder: B3
Kd [2]: 0.0792 nM
Kd [3]: 0.432 nM

Binder: B4
Kd [4]: 0.00945 nM

Binder: B5
Kd [5]: 0.221 nM
Kd [6]: 0.00248 nM
Kd [7]: 0.129 nM
Kd [8]: 0.268 nM
Kd [2]: 0.00035 nM
Kd [9]: 0.159 nM
Kd [3]: 0.209 nM

Binder: B6
Kd [10]: 1.95 nM
